What all share (assay): cell_activity
Series [1] has as its system btPRLR 9.13 TALEN left (synthetic). Conditions: pair value; printed RVDs lack one HD relative to target.
Series [2] has as its system btPRLR 9.13 TALEN right (synthetic). Conditions: pair value, bovine fibroblasts.
The subject of series [3] is btPRLR 9.11 TALEN left (synthetic). Conditions: pair inactive, bovine fibroblasts.
Series [4] relates to btPRLR 9.11 TALEN right (synthetic). The settings on record: pair inactive, bovine fibroblasts.
In series [5] the test system is btPRLR 9.14 TALEN left (synthetic). Conditions: pair inactive, bovine fibroblasts.
In series [6] the test system is btPRLR 9.14 TALEN right (synthetic). Conditions: pair inactive, bovine fibroblasts.
Series [7] concerns btPRLR 9.9 TALEN left (synthetic). Conditions: pair inactive, bovine fibroblasts.
Series [8] concerns btPRLR 9.9 TALEN right (synthetic). Conditions: pair inactive, bovine fibroblasts.
Series [9] has as its system btPRLR 9.7 TALEN left (synthetic). The settings on record: pair inactive, bovine fibroblasts.
Series [10] has as its system btPRLR 9.7 TALEN right (synthetic). The settings on record: pair inactive; printed RVDs read the sense strand.
Series [11] relates to btPRLR 9.2 TALEN left (synthetic). Conditions: pair inactive, bovine fibroblasts.
Series [12] relates to btPRLR 9.2 TALEN right (synthetic). The settings on record: pair inactive, bovine fibroblasts.
Series [13] has as its system btPRLR 9.4 TALEN left (synthetic). Conditions: pair inactive, but same left RVDs active in 9.5.
Series [14] concerns btPRLR 9.4 TALEN right (synthetic). Conditions: pair inactive, bovine fibroblasts.
Series [15] concerns btPRLR 9.5 TALEN left (synthetic). Conditions: pair value, bovine fibroblasts.
The test system of series [16] is btPRLR 9.5 TALEN right (synthetic). Conditions: pair value, bovine fibroblasts.
Series [17] relates to btPRLR 9.10 TALEN left (synthetic). Conditions: pair inactive, bovine fibroblasts.
Series [18] relates to btPRLR 9.10 TALEN right (synthetic). The settings on record: pair inactive, bovine fibroblasts.
Series [19] concerns btPRLR 9.6 TALEN left (synthetic). Conditions: pair inactive, bovine fibroblasts.
The subject of series [20] is btPRLR 9.6 TALEN right (synthetic). Conditions: pair inactive; one RVD printed as N, read as NN.
The test system of series [21] is btPRLR 9.1 TALEN left (synthetic). The settings on record: pair value, bovine fibroblasts, TALEN mRNA.
Series [22] has as its system btPRLR 9.1 TALEN right (synthetic). The settings on record: pair value, bovine fibroblasts, TALEN mRNA.
The test system of series [23] is btPRLR 9.3 TALEN left (synthetic). The settings on record: pair inactive, bovine fibroblasts.
The subject of series [24] is btPRLR 9.3 TALEN right (synthetic). The settings on record: pair inactive, bovine fibroblasts.
Series [25] concerns btPRLR 9.8 TALEN left (synthetic). The settings on record: pair value, bovine fibroblasts; also active in zygotes (Table VI).
The subject of series [26] is btPRLR 9.8 TALEN right (synthetic). Conditions: pair value, bovine fibroblasts; also active in zygotes (Table VI).
Series [27] deals with btPRLR 9.12 TALEN left (synthetic). Conditions: pair value, bovine fibroblasts; also active in zygotes (Table VI).
Series [28] deals with btPRLR 9.12 TALEN right (synthetic). The settings on record: pair value, bovine fibroblasts; also active in zygotes (Table VI).

As to “AAAAGCCTCAAAAACCATTGAAACTGGCAGGGAAGGAAAGGCAACCAAGCAG (double strand) [9.13 left site]”, in series [1], the activity turned out to be 6.8 % Cel-I. For the sequence “AAAAGCCTCAAAAACCATTGAAACTGGCAGGGAAGGAAAGGCAACCAAGCAG (double strand) [9.13 right site]”, in series [2], the activity was determined as 6.8 % Cel-I.

“CAAAAACCATTGAAACTGGCAGGGAAGGAAAGGCAACCAAGCAGAGGGAGTC (double strand) [9.11 left site]”: the activity in series [3] amounted to 0 % Cel-I. For “CAAAAACCATTGAAACTGGCAGGGAAGGAAAGGCAACCAAGCAGAGGGAGTC (double strand) [9.11 right site]”, in series [4], the activity was 0 % Cel-I. The sequence “CAAAAACCATTGAAACTGGCAGGGAAGGAAAGGCAACCAAGCAGAGGGAGTC (double strand) [9.14 left site]” had an activity in series [5] of 0 % Cel-I.

Regarding “CAAAAACCATTGAAACTGGCAGGGAAGGAAAGGCAACCAAGCAGAGGGAGTC (double strand) [9.14 right site]”, the activity in series [6] is 0 % Cel-I. Regarding “CAGAAGGCTGCAGTTCCAAGCCTGACCAAGACACGGTGTGGCCACG (double strand) [9.9 left site]”, the activity in series [7] turned out to be 0 % Cel-I.

“CAGAAGGCTGCAGTTCCAAGCCTGACCAAGACACGGTGTGGCCACG (double strand) [9.9 right site]” registered an activity in series [8] of 0 % Cel-I. With “CAGACCAACATGCTTTAAAAGCCTCAAAAACCATTGAAACTGGCAG (double strand) [9.7 left site]”, the activity in series [9] is 0 % Cel-I. On to “CAGACCAACATGCTTTAAAAGCCTCAAAAACCATTGAAACTGGCAG (double strand) [9.7 right site]”, for which the activity in [10] came out at 0 % Cel-I. The sequence “GCTTTAAAAGCCTCAAAAACCATTGAAACTGGCAGGGAAGGAAAGGC (double strand) [9.2 left site]” returned an activity in series [11] of 0 % Cel-I.

In series [12], “GCTTTAAAAGCCTCAAAAACCATTGAAACTGGCAGGGAAGGAAAGGC (double strand) [9.2 right site]” showed an activity of 0 % Cel-I.

For “GCTTTAAAAGCCTCAAAAACCATTGAAACTGGCAGGGAAGGAAAGGCAACCA (double strand) [9.4 left site]”, in series [13], the activity turned out to be 0 % Cel-I. For “GCTTTAAAAGCCTCAAAAACCATTGAAACTGGCAGGGAAGGAAAGGCAACCA (double strand) [9.4 right site]”, in series [14], the activity worked out at 0 % Cel-I.

As for “GCTTTAAAAGCCTCAAAAACCATTGAAACTGGCAGGGAAGGAAAGGCAACCA (double strand) [9.5 left site]”, the activity in series [15] turned out to be 13.9 % Cel-I. For the sequence “GCTTTAAAAGCCTCAAAAACCATTGAAACTGGCAGGGAAGGAAAGGCAACCA (double strand) [9.5 right site]”, in series [16], the activity came out at 13.9 % Cel-I. In series [17], “GGCCACGACCCCAAGACAAAACCCCCTTGATCTCTGCTAAACCCTTGGAAT (double strand) [9.10 left site]” returned an activity of 0 % Cel-I.

With “GGCCACGACCCCAAGACAAAACCCCCTTGATCTCTGCTAAACCCTTGGAAT (double strand) [9.10 right site]”, in [18], the activity came out at 0 % Cel-I.

“GGCCGGCACCACAGCCACTTCGCTGGACCAAACAGACCAACATGCTTT (double strand) [9.6 left site]” displayed an activity in [19] of 0 % Cel-I.

As to “GGCCGGCACCACAGCCACTTCGCTGGACCAAACAGACCAACATGCTTT (double strand) [9.6 right site]”, the activity in [20] is 0 % Cel-I. Regarding “GGCCGGCACCACAGCCACTTCGCTGGACCAAACAGACCAACATGCTTTA (double strand) [9.1 left site]”, the activity in series [21] is 20.9 % Cel-I.

As for “GGCCGGCACCACAGCCACTTCGCTGGACCAAACAGACCAACATGCTTTA (double strand) [9.1 right site]”, the activity in series [22] is 20.9 % Cel-I. In series [23], “GGCCGGCACCACAGCCACTTCGCTGGACCAAACAGACCAACATGCTTTAA (double strand) [9.3 left site]” yielded an activity of 0 % Cel-I. Sequence “GGCCGGCACCACAGCCACTTCGCTGGACCAAACAGACCAACATGCTTTAA (double strand) [9.3 right site]” yielded an activity in series [24] of 0 % Cel-I. For the sequence “GTGGCCACGACCCCAAGACAAAACCCCCTTGATCTCTGCTAAACCCTTGG (double strand) [9.8 left site]”, the activity in [25] came to 10.1 % Cel-I. Consider “GTGGCCACGACCCCAAGACAAAACCCCCTTGATCTCTGCTAAACCCTTGG (double strand) [9.8 right site]”, for which the activity in series [26] came out at 10.1 % Cel-I. With “TCGCTGGACCAAACAGACCAACATGCTTTAAAAGCCTCAAAAACCATTG (double strand) [9.12 left site]”, in series [27], the activity was 15.9 % Cel-I. For “TCGCTGGACCAAACAGACCAACATGCTTTAAAAGCCTCAAAAACCATTG (double strand) [9.12 right site]”, in series [28], the activity turned out to be 15.9 % Cel-I.

For the origin of these results see patent US20170079251.
